Experimental data published in patent publication US20230235012A1 (ALPINE IMMUNE SCIENCES, published 2023).

T1: human ICOS, full-length, expressed on transfected Expi293 cells (human, UniProt Q9Y6W8 21-199)
T1 construct: whole, on cells
T1 sequence (looked up): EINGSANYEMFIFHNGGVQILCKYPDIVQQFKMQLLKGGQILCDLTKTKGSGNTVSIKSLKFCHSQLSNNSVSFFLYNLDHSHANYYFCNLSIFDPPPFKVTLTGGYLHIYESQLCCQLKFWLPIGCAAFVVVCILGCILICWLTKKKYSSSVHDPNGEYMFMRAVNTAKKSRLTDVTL


How the values were obtained:
[1] = target: T2, human CD28, full-length, expressed on transfected Expi293 cells (human, UniProt P10747 19-220); assay: flow cytometry, 100 nM, Expi293 cells with human CD28
T2 construct: whole, on cells

[2] = target: T1, human ICOS, full-length, expressed on …; assay: flow cytometry, 100 nM, Expi293 cells with human ICOS
[3] = target: T3, human CTLA-4, full-length, expressed on transfected Expi293 cells (human, UniProt P16410 36-223); assay: flow cytometry, 100 nM, Expi293 cells with human CTLA-4
T3 construct: whole, on cells
T3 sequence (P16410 36-223): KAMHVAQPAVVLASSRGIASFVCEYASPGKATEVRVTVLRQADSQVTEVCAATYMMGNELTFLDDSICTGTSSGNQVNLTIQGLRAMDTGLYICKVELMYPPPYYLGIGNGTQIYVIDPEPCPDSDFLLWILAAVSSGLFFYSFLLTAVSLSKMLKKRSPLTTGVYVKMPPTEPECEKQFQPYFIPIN

| MFI [1] | MFI ratio to WT (ΔWT) [1] | MFI [2] | MFI ratio to WT (ΔWT) [2] | MFI [3] | MFI ratio to WT (ΔWT) [3] | Binder |
| --- | --- | --- | --- | --- | --- | --- |
| 115000 MFI | 5.1 fold | 266000 MFI | 1.25 fold | 463000 MFI | 1.4 fold | variant ICOSL IgV-Fc fusion N52M/N57H/Q100S (Fc fusion) DTQEKEVRAMVGSDVELSCACPEGSRFDLNDVYVYWQTSESKTVVTYHIPQMSSLEHVDSRYRNRALMSPAGMLRGDFSLRLFNVTPQDEQKFHCLVLSSSLGFQEVLSVEVTLHVAANFSVGSGGGGSEPKSSDKTHTCPPCPAPEAEGAPSVFLFPPKPKDTLMISRTPEVTCVVVDVSHEDPEVKFNWYVDGVEVHNAKTKPREEQYNSTYRVVSVLTVLHQDWLNGKEYKCKVSNKALPAPIEKTISKAKGQPREPQVYTLPPSREEMTKNQVSLTCLVKGFYPSDIAVEWESNGQPENNYKTTPPVLDSDGSFFLYSKLTVDKSRWQQGNVFSCSVMHEALHNHYTQKSLSLSPG |
| 6800 MFI | 0.3 fold | 143000 MFI | 0.68 fold | 5050 MFI | 0.02 fold | variant ICOSL IgV-Fc fusion N52P/N57S/Q100G (Fc fusion) DTQEKEVRAMVGSDVELSCACPEGSRFDLNDVYVYWQTSESKTVVTYHIPQPSSLESVDSRYRNRALMSPAGMLRGDFSLRLFNVTPQDEQKFHCLVLSGSLGFQEVLSVEVTLHVAANFSVGSGGGGSEPKSSDKTHTCPPCPAPEAEGAPSVFLFPPKPKDTLMISRTPEVTCVVVDVSHEDPEVKFNWYVDGVEVHNAKTKPREEQYNSTYRVVSVLTVLHQDWLNGKEYKCKVSNKALPAPIEKTISKAKGQPREPQVYTLPPSREEMTKNQVSLTCLVKGFYPSDIAVEWESNGQPENNYKTTPPVLDSDGSFFLYSKLTVDKSRWQQGNVFSCSVMHEALHNHYTQKSLSLSPG |
| 131000 MFI | 5.9 fold | 192000 MFI | 0.91 fold | 367000 MFI | 1.11 fold | variant ICOSL IgV-Fc fusion N52Q/N57F (Fc fusion) DTQEKEVRAMVGSDVELSCACPEGSRFDLNDVYVYWQTSESKTVVTYHIPQQSSLEFVDSRYRNRALMSPAGMLRGDFSLRLFNVTPQDEQKFHCLVLSQSLGFQEVLSVEVTLHVAANFSVGSGGGGSEPKSSDKTHTCPPCPAPEAEGAPSVFLFPPKPKDTLMISRTPEVTCVVVDVSHEDPEVKFNWYVDGVEVHNAKTKPREEQYNSTYRVVSVLTVLHQDWLNGKEYKCKVSNKALPAPIEKTISKAKGQPREPQVYTLPPSREEMTKNQVSLTCLVKGFYPSDIAVEWESNGQPENNYKTTPPVLDSDGSFFLYSKLTVDKSRWQQGNVFSCSVMHEALHNHYTQKSLSLSPG |
| 117000 MFI | 5.2 fold | 258000 MFI | 1.22 fold | 302000 MFI | 0.92 fold | variant ICOSL IgV-Fc fusion N52S/N57H/Q100E (Fc fusion) DTQEKEVRAMVGSDVELSCACPEGSRFDLNDVYVYWQTSESKTVVTYHIPQSSSLEHVDSRYRNRALMSPAGMLRGDFSLRLFNVTPQDEQKFHCLVLSESLGFQEVLSVEVTLHVAANFSVGSGGGGSEPKSSDKTHTCPPCPAPEAEGAPSVFLFPPKPKDTLMISRTPEVTCVVVDVSHEDPEVKFNWYVDGVEVHNAKTKPREEQYNSTYRVVSVLTVLHQDWLNGKEYKCKVSNKALPAPIEKTISKAKGQPREPQVYTLPPSREEMTKNQVSLTCLVKGFYPSDIAVEWESNGQPENNYKTTPPVLDSDGSFFLYSKLTVDKSRWQQGNVFSCSVMHEALHNHYTQKSLSLSPG |
| 119000 MFI | 5.3 fold | 308000 MFI | 1.45 fold | 403000 MFI | 1.22 fold | variant ICOSL IgV-Fc fusion N52R/N57L/Q100A (Fc fusion) DTQEKEVRAMVGSDVELSCACPEGSRFDLNDVYVYWQTSESKTVVTYHIPQRSSLELVDSRYRNRALMSPAGMLRGDFSLRLFNVTPQDEQKFHCLVLSASLGFQEVLSVEVTLHVAANFSVGSGGGGSEPKSSDKTHTCPPCPAPEAEGAPSVFLFPPKPKDTLMISRTPEVTCVVVDVSHEDPEVKFNWYVDGVEVHNAKTKPREEQYNSTYRVVSVLTVLHQDWLNGKEYKCKVSNKALPAPIEKTISKAKGQPREPQVYTLPPSREEMTKNQVSLTCLVKGFYPSDIAVEWESNGQPENNYKTTPPVLDSDGSFFLYSKLTVDKSRWQQGNVFSCSVMHEALHNHYTQKSLSLSPG |
| 91300 MFI | 4.1 fold | 263000 MFI | 1.24 fold | 315000 MFI | 0.95 fold | variant ICOSL IgV-Fc fusion N52Q/N57S/Q100A (Fc fusion) DTQEKEVRAMVGSDVELSCACPEGSRFDLNDVYVYWQTSESKTVVTYHIPQQSSLESVDSRYRNRALMSPAGMLRGDFSLRLFNVTPQDEQKFHCLVLSASLGFQEVLSVEVTLHVAANFSVGSGGGGSEPKSSDKTHTCPPCPAPEAEGAPSVFLFPPKPKDTLMISRTPEVTCVVVDVSHEDPEVKFNWYVDGVEVHNAKTKPREEQYNSTYRVVSVLTVLHQDWLNGKEYKCKVSNKALPAPIEKTISKAKGQPREPQVYTLPPSREEMTKNQVSLTCLVKGFYPSDIAVEWESNGQPENNYKTTPPVLDSDGSFFLYSKLTVDKSRWQQGNVFSCSVMHEALHNHYTQKSLSLSPG |
| 131000 MFI | 5.9 fold | 349000 MFI | 1.65 fold | 477000 MFI | 1.44 fold | variant ICOSL IgV-Fc fusion N52R/N57W/Q100K (Fc fusion) DTQEKEVRAMVGSDVELSCACPEGSRFDLNDVYVYWQTSESKTVVTYHIPQRSSLEWVDSRYRNRALMSPAGMLRGDFSLRLFNVTPQDEQKFHCLVLSKSLGFQEVLSVEVTLHVAANFSVGSGGGGSEPKSSDKTHTCPPCPAPEAEGAPSVFLFPPKPKDTLMISRTPEVTCVVVDVSHEDPEVKFNWYVDGVEVHNAKTKPREEQYNSTYRVVSVLTVLHQDWLNGKEYKCKVSNKALPAPIEKTISKAKGQPREPQVYTLPPSREEMTKNQVSLTCLVKGFYPSDIAVEWESNGQPENNYKTTPPVLDSDGSFFLYSKLTVDKSRWQQGNVFSCSVMHEALHNHYTQKSLSLSPG |
| 168000 MFI | 7.5 fold | 322000 MFI | 1.52 fold | 343000 MFI | 1.04 fold | variant ICOSL IgV-Fc fusion N52M/N57W/Q100P (Fc fusion) DTQEKEVRAMVGSDVELSCACPEGSRFDLNDVYVYWQTSESKTVVTYHIPQMSSLEWVDSRYRNRALMSPAGMLRGDFSLRLFNVTPQDEQKFHCLVLSPSLGFQEVLSVEVTLHVAANFSVGSGGGGSEPKSSDKTHTCPPCPAPEAEGAPSVFLFPPKPKDTLMISRTPEVTCVVVDVSHEDPEVKFNWYVDGVEVHNAKTKPREEQYNSTYRVVSVLTVLHQDWLNGKEYKCKVSNKALPAPIEKTISKAKGQPREPQVYTLPPSREEMTKNQVSLTCLVKGFYPSDIAVEWESNGQPENNYKTTPPVLDSDGSFFLYSKLTVDKSRWQQGNVFSCSVMHEALHNHYTQKSLSLSPG |
| 112000 MFI | 5 fold | 231000 MFI | 1.09 fold | 289000 MFI | 0.88 fold | variant ICOSL IgV-Fc fusion N52R/N57L/Q100S (Fc fusion) DTQEKEVRAMVGSDVELSCACPEGSRFDLNDVYVYWQTSESKTVVTYHIPQRSSLELVDSRYRNRALMSPAGMLRGDFSLRLFNVTPQDEQKFHCLVLSSSLGFQEVLSVEVTLHVAANFSVGSGGGGSEPKSSDKTHTCPPCPAPEAEGAPSVFLFPPKPKDTLMISRTPEVTCVVVDVSHEDPEVKFNWYVDGVEVHNAKTKPREEQYNSTYRVVSVLTVLHQDWLNGKEYKCKVSNKALPAPIEKTISKAKGQPREPQVYTLPPSREEMTKNQVSLTCLVKGFYPSDIAVEWESNGQPENNYKTTPPVLDSDGSFFLYSKLTVDKSRWQQGNVFSCSVMHEALHNHYTQKSLSLSPG |
| 127000 MFI | 5.7 fold | 270000 MFI | 1.27 fold | 358000 MFI | 1.08 fold | variant ICOSL IgV-Fc fusion N52R/N57F/Q100T (Fc fusion) DTQEKEVRAMVGSDVELSCACPEGSRFDLNDVYVYWQTSESKTVVTYHIPQRSSLEFVDSRYRNRALMSPAGMLRGDFSLRLFNVTPQDEQKFHCLVLSTSLGFQEVLSVEVTLHVAANFSVGSGGGGSEPKSSDKTHTCPPCPAPEAEGAPSVFLFPPKPKDTLMISRTPEVTCVVVDVSHEDPEVKFNWYVDGVEVHNAKTKPREEQYNSTYRVVSVLTVLHQDWLNGKEYKCKVSNKALPAPIEKTISKAKGQPREPQVYTLPPSREEMTKNQVSLTCLVKGFYPSDIAVEWESNGQPENNYKTTPPVLDSDGSFFLYSKLTVDKSRWQQGNVFSCSVMHEALHNHYTQKSLSLSPG |
| 133000 MFI | 6 fold | 229000 MFI | 1.08 fold | 504000 MFI | 1.53 fold | variant ICOSL IgV-Fc fusion N52R/N57Y/Q100S (Fc fusion) DTQEKEVRAMVGSDVELSCACPEGSRFDLNDVYVYWQTSESKTVVTYHIPQRSSLEYVDSRYRNRALMSPAGMLRGDFSLRLFNVTPQDEQKFHCLVLSSSLGFQEVLSVEVTLHVAANFSVGSGGGGSEPKSSDKTHTCPPCPAPEAEGAPSVFLFPPKPKDTLMISRTPEVTCVVVDVSHEDPEVKFNWYVDGVEVHNAKTKPREEQYNSTYRVVSVLTVLHQDWLNGKEYKCKVSNKALPAPIEKTISKAKGQPREPQVYTLPPSREEMTKNQVSLTCLVKGFYPSDIAVEWESNGQPENNYKTTPPVLDSDGSFFLYSKLTVDKSRWQQGNVFSCSVMHEALHNHYTQKSLSLSPG |
| 3280 MFI | 0.1 fold | 6100 MFI | 0.03 fold | 4270 MFI | 0.01 fold | variant ICOSL IgV-Fc fusion N52R/N57Y/Q100R (Fc fusion) DTQEKEVRAMVGSDVELSCACPEGSRFDLNDVYVYWQTSESKTVVTYHIPQRSSLEYVDSRYRNRALMSPAGMLRGDFSLRLFNVTPQDEQKFHCLVLSRSLGFQEVLSVEVTLHVAANFSVGSGGGGSEPKSSDKTHTCPPCPAPEAEGAPSVFLFPPKPKDTLMISRTPEVTCVVVDVSHEDPEVKFNWYVDGVEVHNAKTKPREEQYNSTYRVVSVLTVLHQDWLNGKEYKCKVSNKALPAPIEKTISKAKGQPREPQVYTLPPSREEMTKNQVSLTCLVKGFYPSDIAVEWESNGQPENNYKTTPPVLDSDGSFFLYSKLTVDKSRWQQGNVFSCSVMHEALHNHYTQKSLSLSPG |
